This is an account of results in US20240301064A1 (published 2024).

One test deals with T1, Insulin.
T1 construct: polyreactivity antigen
The test is described as follows: ELISA on coated insulin, 100 nM antibody.

Test [1] has as its target T2, human PD-1 (human, UniProt Q15116 25-167, limits assumed).
T2 construct: also called huPD-1
The test is described as follows: ELISA on coated huPD-1. The procedure: Plates were coated with 2 μg/mL huPD-1 in 1×PBS at 4° C. overnight. Plates were blocked with 1×PBS with 1% BSA. Antibodies were tested in duplicate for binding with a 3-fold, dilution series from 300 nM to 0.4 nM. Signal is background subtracted for coated wells with 2° antibody only. […] PD-1 agonists comprising germline mutations bind to human PD-1.

The target of test [2] is T2, human PD-1. In words: BLI, antibody on AHC tip.
Test [3] addresses T2, human PD-1. The test is described as follows: BLI, antibody on AHC tip, soluble PD-1.

Residue numbers refer to the chain shown, from its start.

T1 sequence (P01308 25-54, chain 1 of 2): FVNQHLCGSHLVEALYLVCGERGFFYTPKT
T1 sequence (P01308 90-110, chain 2 of 2): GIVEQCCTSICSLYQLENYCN
T2 sequence (Q15116 25-167 limits assumed): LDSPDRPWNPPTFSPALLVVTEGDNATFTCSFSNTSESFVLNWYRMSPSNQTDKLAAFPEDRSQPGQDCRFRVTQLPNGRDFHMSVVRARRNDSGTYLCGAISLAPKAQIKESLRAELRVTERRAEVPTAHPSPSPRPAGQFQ

B1: MIAB133 (antibody, human IgG1, kappa)
heavy: EVQLLESGGGLVQPGGSLRLSCAASGFTFSSFWMHWVRQAPGKGLEWISYISGDSGYTNYADSVKGRFTISRDNSKNTLYLQMNSLRAEDTAVYYCARDRPYYYYMDVWGKGTTVTVSSASTKGPSVFPLAPSSKSTSGGTAALGCLVKDYFPEPVTVSWNSGALTSGVHTFPAVLQSSGLYSLSSVVTVPSSSLGTQTYICNVNHKPSNTKVDKKVEPKSCDKTHTCPPCPAPEAAGAPSVFLFPPKPKDTLMISRTPEVTCVVVDVSHEDPEVKFNWYVDGVEVHNAKTKPREEQYNSTYRVVSVLTVLHQDWLNGKEYKCKVSNKALPAPIEKTISKAKGQPREPQVYTLPPSREEMTKNQVSLTCLVKGFYPSDIAVEWESNGQPENNYKTTPPVLDSDGSFFLYSKLTVDKSRWQQGNVFSCSVMHEALHNHYTQKSLSLSPGGGGGSAPTSSSTKKTQLQLEHLLLDLQMILNGINNYKNPKLTRMLTFKFYMPKKATELKHLQCLEEELKPLEEALNLAPSKNFHLRPRDLISDINVIVLELKGSETTFMCEYADETATIVEFINRWITFSQSIISTLT
light: DIQMTQSPSSLSASVGDRVTITCRASQSVSRSLAWYQQKPGKAPKLLIYAASSLQSGVPSRFSGSGSGTDFTLTISSLQPEDFATYYCQQYKSYPVTFGQGTKVEIKRTVAAPSVFIFPPSDEQLKSGTASVVCLLNNFYPREAKVQWKVDNALQSGNSQESVTEQDSKDSTYSLSSTLTLSKADYEKHKVYACEVTHQGLSSPVTKSFNRGEC
notes: also called MIAB133-001
Consider B1, for which, in the test with Insulin, the Insulin polyreactivity score was found to be 13.2.

B2: MIAB137 (antibody, human IgG1, kappa)
heavy: B1 heavy with S31D, I48V, Y50A, D54S, S55G, Y57S, N59Y
light: B1 light
Take B2: in the test with Insulin, the Insulin polyreactivity score was determined as 67.3.

B3: MIAB147 (antibody, human IgG1, kappa)
heavy: B1 heavy with S31D
light: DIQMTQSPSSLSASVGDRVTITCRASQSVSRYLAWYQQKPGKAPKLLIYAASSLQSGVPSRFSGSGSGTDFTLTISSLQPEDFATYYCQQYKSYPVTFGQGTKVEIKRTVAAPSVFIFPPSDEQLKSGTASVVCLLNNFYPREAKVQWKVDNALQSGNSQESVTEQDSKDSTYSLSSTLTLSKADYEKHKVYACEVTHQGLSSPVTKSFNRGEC
notes: also called MIAB147-001
The molecule B3 yielded an Insulin polyreactivity score with Insulin of 3.81.

B4: MIAB149 (antibody, human IgG1, kappa)
heavy: B1 heavy with S31D
light: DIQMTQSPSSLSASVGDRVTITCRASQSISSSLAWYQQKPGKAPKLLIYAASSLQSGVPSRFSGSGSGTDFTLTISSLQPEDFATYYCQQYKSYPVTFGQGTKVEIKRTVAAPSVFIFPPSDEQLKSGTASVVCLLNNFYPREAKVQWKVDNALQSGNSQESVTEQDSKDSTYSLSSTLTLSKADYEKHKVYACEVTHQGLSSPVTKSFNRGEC
notes: also called MIAB149-001
With B4, the Insulin polyreactivity score with Insulin came to 3.53.

B5: MIAB146 (antibody, human IgG1, kappa)
heavy: B1 heavy with S31D
light: B1 light with R31S
notes: also called MIAB146-001
In the test with Insulin, B5 had an Insulin polyreactivity score of 2.61.

B6: MIAB145 (antibody, human IgG1, kappa)
heavy: B1 heavy with S31D
light: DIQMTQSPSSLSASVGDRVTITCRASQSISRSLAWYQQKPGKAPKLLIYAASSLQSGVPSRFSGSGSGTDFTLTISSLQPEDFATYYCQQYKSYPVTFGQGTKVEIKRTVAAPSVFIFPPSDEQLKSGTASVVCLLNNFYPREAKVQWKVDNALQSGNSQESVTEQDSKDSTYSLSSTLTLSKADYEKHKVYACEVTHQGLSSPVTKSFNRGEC
notes: also called MIAB145-001
With B6, the Insulin polyreactivity score with Insulin worked out at 4.58.

B7: MIAB136 (antibody, human IgG1, kappa)
heavy: B1 heavy with F32Y, W33A, H35S
light: B1 light
As for B7, in the test with Insulin, the Insulin polyreactivity score stood at 75.4.

B8: PMAB233 (antibody, human IgG1, kappa, V domains shown)
VH: QVQLVQSGAEVKKPGASVKVSCKASGYTFTTYYMHWVRQAPGQGLEWMGIIQPSGGSTSYAQKFQGRVTMTRDTSTSTVYMELSSLRSEDTAVYYCASGWVYWGQGTLVTVSS
VL: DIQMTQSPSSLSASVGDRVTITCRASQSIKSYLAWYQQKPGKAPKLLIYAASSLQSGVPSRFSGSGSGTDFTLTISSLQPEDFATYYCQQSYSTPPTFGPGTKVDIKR
As to B8, in the test with human PD-1 [1], the IC50 worked out at 85.9 nM.

B9: PMAB241 (antibody, human IgG1, kappa, V domains shown)
VH: B8 VH with T28S, T31S
VL: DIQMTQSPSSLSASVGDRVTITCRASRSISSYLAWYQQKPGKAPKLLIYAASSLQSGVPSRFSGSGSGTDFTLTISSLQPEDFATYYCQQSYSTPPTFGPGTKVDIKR
For B9, in the test with human PD-1 [1], it took 46.4 nM to reach half-maximal inhibition (IC50). Against the preceding molecule, the IC50 is about 1.9-fold lower.

B10: PMAB244 (antibody, human IgG1, kappa, V domains shown)
VH: B8 VH with T28S
VL: DIQMTQSPSSLSASVGDRVTITCQASRDIKNYLAWYQQKPGKAPKLLIYAASSLQSGVPSRFSGSGSGTDFTLTISSLQPEDFATYYCQQSYSTPPTFGPGTKVDIKR
In the case of B10, the midpoint of inhibition in the test with human PD-1 [1], the IC50, lay at 258 nM.

B11: PMAB237 (antibody, human IgG1, kappa, V domains shown)
VH: B8 VH
VL: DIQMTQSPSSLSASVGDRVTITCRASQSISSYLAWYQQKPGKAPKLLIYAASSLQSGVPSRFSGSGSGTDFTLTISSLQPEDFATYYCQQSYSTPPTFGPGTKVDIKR
B11 had a concentration for half-maximal inhibition (IC50) with human PD-1 [1] of 15.9 nM.

B12: PMAB238 (antibody, human IgG1, kappa, V domains shown)
VH: B8 VH with T28S, T31S
VL: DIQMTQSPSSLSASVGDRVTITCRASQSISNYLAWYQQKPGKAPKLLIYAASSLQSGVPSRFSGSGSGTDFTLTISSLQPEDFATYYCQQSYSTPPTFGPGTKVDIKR
Regarding B12, half-maximal inhibition with human PD-1 [1] (IC50) required 36.4 nM. This IC50 is about 2.3-fold higher than that of the molecule before.

B13: PMAB240 (antibody, human IgG1, kappa, V domains shown)
VH: B8 VH with T28S, T31S
VL: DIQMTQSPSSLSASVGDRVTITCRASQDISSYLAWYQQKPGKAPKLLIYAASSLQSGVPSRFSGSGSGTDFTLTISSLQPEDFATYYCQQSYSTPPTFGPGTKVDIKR
In the case of B13, in the test with human PD-1 [1], the IC50 came to 39 nM.

B14: PMAB235 (antibody, human IgG1, kappa, V domains shown)
VH: B8 VH
VL: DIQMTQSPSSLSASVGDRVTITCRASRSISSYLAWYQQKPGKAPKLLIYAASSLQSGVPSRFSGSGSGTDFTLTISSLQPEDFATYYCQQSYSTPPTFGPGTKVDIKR
Turning to B14, the IC50 in the test with human PD-1 [1] amounted to 23.2 nM.

B15: PMAB234 (antibody, human IgG1, kappa, V domains shown)
VH: B8 VH
VL: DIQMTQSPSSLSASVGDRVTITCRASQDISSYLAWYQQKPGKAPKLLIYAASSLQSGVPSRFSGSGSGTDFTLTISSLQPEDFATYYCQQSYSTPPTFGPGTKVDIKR
B15 showed a half-maximal inhibitory concentration (IC50) with human PD-1 [1] of 28.1 nM.

B16: PMAB239 (antibody, human IgG1, kappa, V domains shown)
VH: B8 VH with T28S, T31S
VL: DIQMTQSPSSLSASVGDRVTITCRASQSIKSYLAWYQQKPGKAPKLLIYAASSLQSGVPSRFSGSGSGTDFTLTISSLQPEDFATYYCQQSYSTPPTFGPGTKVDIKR
The molecule B16 returned a half-inhibitory concentration (IC50) with human PD-1 [1] of 44.7 nM.

B17: PMAB242 (antibody, human IgG1, kappa, V domains shown)
VH: B8 VH with T28S, T31S
VL: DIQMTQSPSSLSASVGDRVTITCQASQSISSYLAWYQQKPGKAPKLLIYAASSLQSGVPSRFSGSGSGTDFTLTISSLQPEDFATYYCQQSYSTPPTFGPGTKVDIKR
Molecule B17 gave a concentration for half-maximal inhibition (IC50) with human PD-1 [1] of 30.6 nM.

B18: PMAB243 (antibody, human IgG1, kappa, V domains shown)
VH: B8 VH with T28S, T31S
VL: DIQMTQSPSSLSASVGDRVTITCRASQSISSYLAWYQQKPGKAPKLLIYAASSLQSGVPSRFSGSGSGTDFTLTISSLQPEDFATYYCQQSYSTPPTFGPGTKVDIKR
In the test with human PD-1 [1], B18 showed a half-inhibitory concentration (IC50) of 40.7 nM.

B19: PMAB137 (bispecific antibody, human IgG1, kappa)
heavy: EVQLLESGGGLVQPGGSLRLSCAASGFTFSNSAMSWVRQAPGKGLEWVSGITISGGSTYYADSVKGRFTISRDNSKNTLYLQMNSLRAEDTAVYYCARGRGGSGWLDYWGQGTLVTVSSASTKGPSVFPLAPSSKSTSGGTAALGCLVKDYFPEPVTVSWNSGALTSGVHTFPAVLQSSGLYSLSSVVTVPSSSLGTQTYICNVNHKPSNTKVDKKVEPKSCDKTHTCPPCPAPEAAGAPSVFLFPPKPKDTLMISRTPEVTCVVVDVSHEDPEVKFNWYVDGVEVHNAKTKPREEQYNSTYRVVSVLTVLHQDWLNGKEYKCKVSNKALPAPIEKTISKAKGQPREPQVYTLPPSREEMTKNQVSLTCLVKGFYPSDIAVEWESNGQPENNYKTTPPVLDSDGSFFLYSKLTVDKSRWQQGNVFSCSVMHEALHNHYTQKSLSLSPGGGGGSGGGGSGGGGSEVQLLESGGGLVQPGGSLRLSCAASGFTFSDFWMHWVRQAPGKGLEWISYISGDSGYTNYADSVKGRFTISRDNSKNTLYLQMNSLRAEDTAVYYCARDRPYYYYMDVWGKGTTVTVSSGGGGSGGGGSGGGGSGGGGSDIQMTQSPSSLSASVGDRVTITCRASQSVSRSLAWYQQKPGKAPKLLIYAASSLQSGVPSRFSGSGSGTDFTLTISSLQPEDFATYYCQQYKSYPVTFGQGTKVEIK
light: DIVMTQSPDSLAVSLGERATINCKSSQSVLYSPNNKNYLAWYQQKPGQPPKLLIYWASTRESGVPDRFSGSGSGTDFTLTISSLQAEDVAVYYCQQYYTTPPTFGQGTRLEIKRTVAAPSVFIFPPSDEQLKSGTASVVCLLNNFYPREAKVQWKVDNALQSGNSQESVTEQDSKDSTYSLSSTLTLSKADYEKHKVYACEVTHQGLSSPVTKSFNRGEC
Consider B19, for which, in the test with human PD-1 [2], the binding result is on record as “no binding (tested: 1000 nM)”.

B20: PMAB184 (bispecific antibody, human IgG1, kappa)
heavy: B19 heavy with N31S, S32Y, A33D, G50A, T52S, I53G
light: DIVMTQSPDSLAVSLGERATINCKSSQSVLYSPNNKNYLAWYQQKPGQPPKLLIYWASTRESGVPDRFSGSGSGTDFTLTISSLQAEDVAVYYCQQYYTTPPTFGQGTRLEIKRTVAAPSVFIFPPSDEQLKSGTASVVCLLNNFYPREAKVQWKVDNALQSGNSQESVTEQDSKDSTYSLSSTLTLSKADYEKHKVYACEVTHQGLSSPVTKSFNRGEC
As to B20, the binding result with human PD-1 [2] is recorded as “no binding (tested: 1000 nM)”.

B21: PMAB182 (bispecific antibody, human IgG1, kappa)
heavy: B19 heavy with N31S, S32Y, T52S, I53G
light: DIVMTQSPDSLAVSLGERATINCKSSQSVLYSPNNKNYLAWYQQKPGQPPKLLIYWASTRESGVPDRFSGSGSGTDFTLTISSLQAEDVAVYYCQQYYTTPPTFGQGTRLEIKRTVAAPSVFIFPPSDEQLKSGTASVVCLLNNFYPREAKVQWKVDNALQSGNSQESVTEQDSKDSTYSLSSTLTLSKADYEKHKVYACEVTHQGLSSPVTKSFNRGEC
Consider B21, for which, in the test with human PD-1 [2], the binding result is “no binding (tested: 1000 nM)”.

B22: PMAB144 (bispecific antibody, human IgG1, kappa)
heavy: B19 heavy with A33D
light: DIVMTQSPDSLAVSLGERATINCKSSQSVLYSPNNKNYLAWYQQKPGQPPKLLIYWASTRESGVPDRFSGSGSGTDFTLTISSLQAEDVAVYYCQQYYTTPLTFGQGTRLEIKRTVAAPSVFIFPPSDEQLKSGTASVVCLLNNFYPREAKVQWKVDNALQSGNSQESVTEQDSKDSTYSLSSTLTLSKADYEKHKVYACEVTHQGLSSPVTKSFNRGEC
For the molecule B22, in the test with human PD-1 [2], the binding result was “no binding (tested: 1000 nM)”.

B23: PMAB145 (bispecific antibody, human IgG1, kappa)
heavy: B19 heavy with A33D
light: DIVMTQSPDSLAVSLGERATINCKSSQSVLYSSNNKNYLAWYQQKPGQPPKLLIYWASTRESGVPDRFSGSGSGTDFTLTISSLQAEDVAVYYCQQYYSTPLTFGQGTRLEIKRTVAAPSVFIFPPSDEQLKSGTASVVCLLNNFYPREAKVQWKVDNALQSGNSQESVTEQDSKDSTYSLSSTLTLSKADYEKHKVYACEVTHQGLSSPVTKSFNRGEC
With B23, in the test with human PD-1 [2], the binding result is given as “no binding (tested: 1000 nM)”.

B24: PMAB179 (bispecific antibody, human IgG1, kappa)
heavy: B19 heavy with N31S, S32Y, A33D, G50A, T52S
light: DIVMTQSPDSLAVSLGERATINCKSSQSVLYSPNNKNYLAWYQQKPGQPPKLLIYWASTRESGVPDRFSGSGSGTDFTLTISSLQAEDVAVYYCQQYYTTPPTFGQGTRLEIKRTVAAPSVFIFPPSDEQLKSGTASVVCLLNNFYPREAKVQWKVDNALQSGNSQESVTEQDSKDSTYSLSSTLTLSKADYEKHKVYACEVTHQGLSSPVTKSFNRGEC
Take B24: the binding result with human PD-1 [2] was “no binding (tested: 1000 nM)”.

B25: PMAB211 (bispecific antibody, human IgG1, kappa)
heavy: QVQLVQSGAEVKKPGASVKVSCKASGYTFSDHYMHWVRQAPGQGLEWMGTIAPSGGRTSYAQKFQGRVTMTRDTSTSTVYMELSSLRSEDTAVYYCAADNGHASGWLYYYGMDVWGQGTTVTVSSASTKGPSVFPLAPSSKSTSGGTAALGCLVKDYFPEPVTVSWNSGALTSGVHTFPAVLQSSGLYSLSSVVTVPSSSLGTQTYICNVNHKPSNTKVDKKVEPKSCDKTHTCPPCPAPEAAGAPSVFLFPPKPKDTLMISRTPEVTCVVVDVSHEDPEVKFNWYVDGVEVHNAKTKPREEQYNSTYRVVSVLTVLHQDWLNGKEYKCKVSNKALPAPIEKTISKAKGQPREPQVYTLPPSREEMTKNQVSLTCLVKGFYPSDIAVEWESNGQPENNYKTTPPVLDSDGSFFLYSKLTVDKSRWQQGNVFSCSVMHEALHNHYTQKSLSLSPGGGGGSGGGGSGGGGSEVQLLESGGGLVQPGGSLRLSCAASGFTFSDFWMHWVRQAPGKGLEWISYISGDSGYTNYADSVKGRFTISRDNSKNTLYLQMNSLRAEDTAVYYCARDRPYYYYMDVWGKGTTVTVSSGGGGSGGGGSGGGGSGGGGSDIQMTQSPSSLSASVGDRVTITCRASQSVSRSLAWYQQKPGKAPKLLIYAASSLQSGVPSRFSGSGSGTDFTLTISSLQPEDFATYYCQQYKSYPVTFGQGTKVEIK
light: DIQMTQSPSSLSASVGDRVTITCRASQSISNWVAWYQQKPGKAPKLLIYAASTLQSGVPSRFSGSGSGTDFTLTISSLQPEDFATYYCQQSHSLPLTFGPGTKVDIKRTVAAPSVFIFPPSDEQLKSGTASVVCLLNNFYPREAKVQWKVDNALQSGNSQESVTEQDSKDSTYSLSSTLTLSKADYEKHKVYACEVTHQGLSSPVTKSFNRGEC
As for B25, the dissociation constant Kd with human PD-1 [3] was found to be 1300 nM.

B26: PMAB213 (bispecific antibody, human IgG1, kappa)
heavy: B25 heavy
light: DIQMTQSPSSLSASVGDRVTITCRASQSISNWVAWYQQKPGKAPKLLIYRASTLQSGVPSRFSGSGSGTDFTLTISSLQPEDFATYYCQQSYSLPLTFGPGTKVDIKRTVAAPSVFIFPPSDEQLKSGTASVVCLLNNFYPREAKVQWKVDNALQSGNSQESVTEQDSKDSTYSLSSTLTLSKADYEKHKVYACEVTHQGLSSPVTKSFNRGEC
Regarding B26, in the test with human PD-1 [3], binding was characterised by a dissociation constant (Kd) of 1430 nM.

B27: PMAB212 (bispecific antibody, human IgG1, kappa)
heavy: B25 heavy
light: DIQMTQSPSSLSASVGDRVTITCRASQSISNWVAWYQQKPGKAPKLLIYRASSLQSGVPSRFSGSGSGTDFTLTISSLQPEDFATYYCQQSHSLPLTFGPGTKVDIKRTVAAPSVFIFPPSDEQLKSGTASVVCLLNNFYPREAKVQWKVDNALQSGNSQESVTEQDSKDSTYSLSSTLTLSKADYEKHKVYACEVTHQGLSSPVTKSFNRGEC
Take B27: the affinity in the test with human PD-1 [3], expressed as Kd, was 1090 nM.

B28: PMAB214 (bispecific antibody, human IgG1, kappa)
heavy: B25 heavy
light: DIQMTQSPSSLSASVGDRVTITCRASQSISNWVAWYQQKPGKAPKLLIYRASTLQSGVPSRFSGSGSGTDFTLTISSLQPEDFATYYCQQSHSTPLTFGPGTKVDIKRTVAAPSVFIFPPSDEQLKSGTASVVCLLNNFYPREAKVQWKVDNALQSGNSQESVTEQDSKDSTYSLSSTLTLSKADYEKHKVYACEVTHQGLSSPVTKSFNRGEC
The molecule B28 returned a dissociation constant Kd with human PD-1 [3] of 8050 nM.
